In patent US10040829B2:

What was measured:
[1] = target: hASCT2 receptor (type 2 sodium-dependant neutral amino acid receptor-transporter) (human) (UniProt Q15758); assay: in vivo binding in SCID mice grafted with XChASCT2 cells; anti-RGS His and anti-mouse FITC, IF reading
hASCT1 receptor (human) = hASCT1 receptor (human) (UniProt P43007); assay: in vivo binding in SCID mice grafted with XChASCT1 cells; anti-RGS His and anti-mouse FITC, IF reading

## soluble HERV-W Env protein of Example 7 (293T cells transfected with the plasmid 460, envelope-spacer-His6)
[1]
  NF/NT, Mean (fluorescent cells out of 57 cells): 23
hASCT1 receptor (human)
  NF/NT, Mean (fluorescent cells out of 77 cells): 24
